Data from patent publication US20210292396A1.
Where “and” joins values, the source holds several entries; their conditions need not be identical. Identical values can stand only once.

Biological target: gp120 (isolate: 92BR020) (HIV)

Substance | EC50 (read off the curve)
VRC01 (antibody) | 0.07 µg/mL
PGT135 (antibody) | 0.05 µg/mL and 0.1 µg/mL
2G12 (antibody) | 0.07 µg/mL
PGT128 (antibody) | 0.05 µg/mL
